Changes are numbered by the printed parent chain. Values joined by “and” are separate entries in the source; they are usually repeats but may differ in a detail not shown here. Equal values may be shown once. Where no end group is shown, it is not given here.
T1: mMepS-L24R (E. coli, UniProt P0AFV4 27-188, C1 replaced with a Met residue | L24R)
T1 construct: Site-directed mutant of mMepS; also called L24R variant; source: E. coli BL21 (DE3), purified (Ni-NTA, SEC)
T1 sequence (looked up): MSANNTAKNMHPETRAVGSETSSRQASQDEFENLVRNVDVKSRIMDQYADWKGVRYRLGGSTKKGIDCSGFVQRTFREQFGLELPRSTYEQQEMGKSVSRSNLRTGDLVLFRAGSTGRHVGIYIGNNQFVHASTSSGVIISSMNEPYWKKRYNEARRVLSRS

T2: mMepS-Q28A (E. coli, UniProt P0AFV4 27-188, C1 replaced with a Met residue | Q28A)
T2 construct: Site-directed mutant of mMepS; source: E. coli BL21 (DE3), purified (Ni-NTA, SEC)
T2 sequence (looked up): T1 sequence (looked up) with R24L, Q28A

B1: soluble mature form of MepS (mMepS, residues 1-162) (enzyme, E. coli, UniProt P0AFV4 27-188, looked up)
chain: T1 sequence (looked up) with R24L
notes: numbers count on: the mature protein; Cloned into either pET21a (C-terminal His-tag) or pET28a (N-terminal His-tag and TEV site); also called mMepS-1; mMepS-2; source: E. coli BL21 (DE3), purified (Ni-NTA, SEC)
B2: mMepS-L24R (enzyme, E. coli, UniProt P0AFV4 27-188, looked up)
chain: T1 sequence (looked up)
notes: numbers count on: the mature protein; Site-directed mutant of mMepS; source: E. coli BL21 (DE3), purified (Ni-NTA, SEC)
B3: mMepS-Q28A (enzyme, E. coli, UniProt P0AFV4 27-188, looked up)
chain: T1 sequence (looked up) with R24L, Q28A
notes: as for B2
B4: mMepS-D39A (enzyme, E. coli, UniProt P0AFV4 27-188, looked up)
chain: T1 sequence (looked up) with R24L, D39A
notes: as for B2
B5: MepS-N53 (residues 1-53) (domain or fragment, E. coli, UniProt P0AFV4 27-79, looked up)
chain: MSANNTAKNMHPETRAVGSETSSLQASQDEFENLVRNVDVKSRIMDQYADWKG
notes: MepS, E. coli, mature residues 1-53, C1 replaced by Met; numbers count on: the mature protein; His-tag and TEV site; nothing is said for the ITC samples; source: E. coli BL21 (DE3), purified (Ni-NTA, SEC)
B6: MepS-N39 (residues 1-39) (domain or fragment, E. coli, UniProt P0AFV4 27-65, looked up)
chain: MSANNTAKNMHPETRAVGSETSSLQASQDEFENLVRNVD
notes: MepS, E. coli, mature residues 1-39, C1 replaced by Met; numbers count on: the mature protein; His-tag and TEV site; nothing is said for the ITC samples; source: E. coli BL21 (DE3), purified (Ni-NTA, SEC)
B7: NlpI (residues 20-294), soluble mature lipoprotein NlpI without the lipoprotein signal peptide (natural protein, E. coli, UniProt P0AFB1 20-294, looked up)
chain: SNTSWRKSEVLAVPLQPTLQQEVILARMEQILASRALTDDERAQLLYERGVLYDSLGLRALARNDFSQALAIRPDMPEVFNYLGIYLTQAGNFDAAYEAFDSVLELDPTYNYAHLNRGIALYYGGRDKLAQDDLLAFYQDDPNDPFRSLWLYLAEQKLDEKQAKEVLKQHFEKSDKEQWGWNIVEFYLGNISEQTLMERLKADATDNTSLAEHLSETNFYLGKYYLSLGDLDSATALFKLAVANNVHNFVEHRYALLELSLLGQDQDDLAESDQQ
notes: the lipidation residue C19 is not in the construct; pET28a, N-terminal His-tag followed by a TEV site; also called NlpI dimer; adaptor NlpI; source: E. coli BL21 (DE3), purified (Ni-NTA, SEC, MonoQ)
B8: soluble mature form of MepS (mMepS, residues 1-162) (enzyme, E. coli, UniProt P0AFV4 27-188, looked up)
chain: T1 sequence (looked up) with R24L
modifications: 15N-labelled in the NMR titrations
notes: Cloned into either pET21a (C-terminal His-tag) or pET28a (N-terminal His-tag and TEV site); also called wild-type mMepS; mature full-length MepS; source: E. coli BL21 (DE3), purified (Ni-NTA, SEC)
B9: MepS-N53 (residues 1-53) (domain or fragment, E. coli, UniProt P0AFV4 27-79, looked up)
chain: B5 chain
modifications: also: 15N-labelled
notes: MepS, E. coli, N-terminal 53 residues of the mature protein, C1 replaced with Met. numbers count on: the mature protein; this is told for the NMR samples, not for ITC; source: E. coli BL21 (DE3), purified (Ni-NTA, SEC); not shown: His6 with TEV site, N-terminal, kept
B10: MepS-N39 (residues 1-39) (domain or fragment, E. coli, UniProt P0AFV4 27-65, looked up)
chain: B6 chain
modifications: also: 15N-labelled
notes: MepS, E. coli, N-terminal 39 residues of the mature protein, C1 replaced with Met. numbers count on: the mature protein; this is told for the NMR samples, not for ITC; source: E. coli BL21 (DE3), purified (Ni-NTA, SEC); not shown: His6 with TEV site, N-terminal, kept
B11: mMepS-D39A (enzyme, E. coli, UniProt P0AFV4 27-188, looked up)
chain: T1 sequence (looked up) with R24L, D39A
notes: Site-directed mutant of mMepS; source: E. coli BL21 (DE3), purified (Ni-NTA, SEC)

Key:
[1] = target: T3, NlpI (residues 20-294, without the lipoprotein signal peptide) (E. coli, UniProt P0AFB1 20-294); experiment: ITC; NlpI (or NlpI-ΔN) in the syringe, 300 or 600 µM, injected into 30 µM MepS protein in the cell; 20 °C; 20 mM HEPES pH 7.5, 300 mM NaCl, 2 mM β-mercaptoethanol; one set of sites model; three experiments and their average; conditions: both partners purified
T3 construct: the lipidation site C19 is not in the construct; pET28a with an N-terminal His-tag and a TEV cleavage site; also called NlpI-WT; NlpI dimer; source: E. coli BL21 (DE3), purified (Ni-NTA, SEC, MonoQ)

[2] = target: T1, mMepS-L24R; experiment: ITC; NlpI (300 or 600 µM) injected into 30 µM MepS protein in the cell; 20 °C; 20 mM HEPES pH 7.5, 300 mM NaCl, 2 mM β-mercaptoethanol; one set of sites model; conditions: both partners purified
[3] = target: B8; experiment: as above; conditions: both partners purified
[4] = target: T2, mMepS-Q28A; experiment: as above; conditions: both partners purified
[5] = target: the molecule itself; experiment: crystal structure; NlpI-mMepS complex, 2.8 Å, space group C2, PDB 8XUP
[6] = target: B8; experiment: NMR titration; 1H-15N TROSY-HSQC of 15N-labelled MepS protein (50 µM in Fig. 1) with unlabelled NlpI dimer (25 µM), NlpI-ΔN or Prc^SK added; 298 K; intensity ratios I/I0; conditions: both partners purified
[7] = target: B7; experiment: ITC; NlpI (300 or 600 µM) injected into 30 µM MepS protein in the cell; 20 °C; 20 mM HEPES pH 7.5, 300 mM NaCl, 2 mM β-mercaptoethanol; one set of sites model; conditions: both partners purified

Binder	Kd [1]	Kd [7]	other results
B1	250 nM and 220 nM		
B2	6210 nM and 6800 nM and 6940 nM and 6650 nM		
B3	1910 nM and 1770 nM and 1880 nM and 1850 nM		
B4	280 nM and 390 nM and 500 nM		
B5	1190 nM and 1560 nM and 1590 nM		
B6	2650 nM and 2550 nM and 2840 nM		
B7			fold increase in KD against mMepS [2]: ~28 fold; stoichiometry N [3]: 1; fold decrease in binding affinity against mMepS [4]: 7.7 fold; stoichiometry N [5]: 2; NMR signal intensity ratio with NlpI [6]: < 10%
B8		240 nM	
B9		1450 nM	
B10		2680 nM	
B11		390 nM	
